B1: anti-CD40 IgM (antibody, V domains shown)
VH: EVQLQQSGPDLVKPGASVKISCKTSGYTFTEYIMHWVKQSHGNSLEWIGGIIPNNGGTSYNQKFKDKATMTVDKSSSTGYMELRSLTSEDSAVYYCTRREVYGRNYYALDYWGQGTLVTVSS
VL: DIQMTQTTSSLSASLGDRVTITCSASQGINNYLNWYQQKPDGTVKLLIYYTSSLHSGVPSRFSGSGSGTDYSLTISNLEPEDIATYYCQQYSNLPYTFGGGTKLEIK
B2: anti-CD40 IgG (antibody, V domains shown)
VH: B1 VH
VL: B1 VL
notes: detection was with anti-human kappa

Legend:
[1] = biological target: T1, Recombinant human CD40-Fc (R&D Systems) (human, UniProt P25942 21-193); experiment: ELISA, plate coated with 6.25 ng/mL human CD40-Fc, detection with anti-human kappa-HRP; Bmax by one site-specific binding with Hill slope; reference anti-CD40 IgG
T1 construct: also called CD4O-Fc; not shown: Fc part of the bought fusion protein

[2] = biological target: T1, Recombinant human CD40-Fc (R&D Systems); experiment: ELISA, plate coated with 1.6 ng/mL human CD40-Fc, detection with anti-human kappa-HRP; Bmax by one site-specific binding with Hill slope; reference anti-CD40 IgG
[3] = biological target: T1, Recombinant human CD40-Fc (R&D Systems); experiment: ELISA on coated human CD40-Fc (1.6 and 6.25 ng/mL)
Procedure: The binding specificity of anti-CD40 IgM and anti-CD40 IgG were measured in an ELISA assay using two different antigen densities by the following method. […] All subsequent washes used PBS+0.05% Tween and all incubation steps were performed in block buffer (2% BSA in PBS). Plates were washed three times, blocked for one hour, and then washed again. The plates were then incubated for one hour with four-fold dilutions of anti-CD40-IgG and anti-CD40-IgM. After washing, the plates were incubated with a 1:6000 dilution of anti-human kappa-HRP (Southern Biotech #9230-05) in blocking buffer for 1 hour at room temperature. The plates were again washed 5 times, and then incubated with TMB substrate (BD Biosciences #555214) for 20 minutes at room temperature. The reaction was stopped with 1M H₂SO₄ and absorbance at 450 nm was read on a SpectraMax340 plate reader (Molecular Devices) using SoftMax Pro software.
Bmax was then calculated at each coating density in GraphPad Prism software using One site-Specific binding with Hill slope. […] IgM is thus more sensitive in detecting low CD40 levels than IgG.

T1 sequence (P25942 21-193 limits assumed): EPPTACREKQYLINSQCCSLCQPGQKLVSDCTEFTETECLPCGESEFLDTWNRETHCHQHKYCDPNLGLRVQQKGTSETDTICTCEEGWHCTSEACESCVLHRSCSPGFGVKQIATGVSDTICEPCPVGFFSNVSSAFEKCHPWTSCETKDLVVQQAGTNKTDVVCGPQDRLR

Binder | fold better binding than anti-CD40 IgG (ratio of Bmax) [1] [fold] | fold better binding than anti-CD40 IgG (ratio of Bmax) [2] [fold] | binding result [3]
B1 | ~2.3 | ~5.5 | –
B2 | – | – | binds

Reference: US20220106399A1 (IGM BIOSCIENCES, published 2022)
